Patent US20190233512A1 (SUTRO BIOPHARMA, published 2019)

Tests used:
[1] = biological target: T1, Human folate receptor alpha (hFOLR1) (human, UniProt P15328 25-234); assay: FACS, CHO-hFOLR1 cells
T1 construct: Stably expressed on CHO cells (CHO-hFOLR1) for flow cytometry; endogenous on FOLR1-positive KB and Igrov1 cells in the killing assay; also called human FOLR1; FolRα
Method: CHO cells were transfected to stably express human (CHO-hFOLR1), cynomolgus (CHO-cFOLR1), or mouse (CHO-mFOLR1) target molecule FOLR1 on the cell surface. Parental CHO cells were used as a negative control to determine background binding levels. Parental CHO and stably transfected CHO-hFOLR1, CHO-cFOLR1, and CHO-mFOLR1 cells were cultured in Ham's F-12: high glucose DMEM (50:50) (Corning, Cellgro-Mediatech) supplemented with 10% heat-inactivated fetal bovine serum (Corning, Cellgro-Mediatech), 1% Penicillin/Streptomycin (Corning, Cellgro-Mediatech) and 2 mmol/L-glutamax (Life Technology).
A mixture of fluoresecent-labeled parental CHO cells and unlabeled CHO-hFOLRlcells were prepared as follows. Parental CHO cells were washed twice in PBS and incubated in PBS containing with 1 nM CellTrace™ Oregon Green488® (Life Technologies) at 37° C. for 30 minutes. Labeled parental CHO cells were then washed 2× with Ham's F-12 media and 2× with FACS buffer (PBS with 1% bovine serum albumin). Unlabeled CHO-hFOLR1 cells were similarly washed and prepared. Labeled parental CHO and unlabeled CHO-hFOLR1 cells were combined at 1:1 ratio and seeded at 50 μL per well (200,000 cells per well) in 96 well polypropylene plates. Cells were mixed with 50 μL of test antibodies (i.e., anti-FOLR1 variants) serially diluted in FACS buffer and incubated on ice for 60 mins. Cells were washed with FACS buffer and incubated on ice for 60 mins with 100 μL FACS buffer containing 2.5 μg/mL R-Phycoerythrin-conjugated goat anti-Human IgG (Jackson ImmunoResearch Laboratories, West Grove, Pa.). Cells were washed twice with FACS buffer, fixed in 2% paraformaldehyde in PBS (Santa Cruz Biotechnology; Dallas, Tex.) for 10 mins on ice in the dark, and analyzed using the BD LSR II Flow Cytometer (BD Biosciences; San Jose, Calif.). Data were analyzed using FlowJo® software (FlowJo, LLC; Ashland, Oreg.) to determine mean fluorescence intensities. Binding constants were calculated using the statistical software, GraphPad Prism (GraphPad Software; La Jolla, Calif.) using the nonlinear regression equation, one site-specific binding with Hill slope. Secondary antibody alone was used as a control, in addition to measuring non-specific antibody binding to CHO parental cells.

[2] = biological target: T2, Murine folate receptor alpha (mouse, UniProt P35846 25-232); assay: FACS, CHO-mFOLR1 cells
T2 construct: Stably expressed on CHO cells (CHO-mFOLR1); also called mouse FOLR1; CHO-mFOLR1
T2 sequence (P35846 25-232 limits assumed): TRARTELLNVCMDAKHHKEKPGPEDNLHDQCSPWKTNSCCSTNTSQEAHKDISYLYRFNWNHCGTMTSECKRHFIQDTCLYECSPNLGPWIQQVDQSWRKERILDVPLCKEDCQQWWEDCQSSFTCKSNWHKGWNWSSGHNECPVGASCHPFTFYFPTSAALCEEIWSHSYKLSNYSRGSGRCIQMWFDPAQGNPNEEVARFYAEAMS

[3] = biological target: T3, Cynomolgus folate receptor alpha (cynomolgus monkey, UniProt P15328 25-234 (human entry)); assay: FACS, CHO-cFOLR1 cells
T3 construct: Stably expressed on CHO cells (CHO-cFOLR1); also called cynomolgus FOLR1; CHO-cFOLR1
T3 sequence (P15328 other isoform, or with tags, fused parts or gaps limits assumed): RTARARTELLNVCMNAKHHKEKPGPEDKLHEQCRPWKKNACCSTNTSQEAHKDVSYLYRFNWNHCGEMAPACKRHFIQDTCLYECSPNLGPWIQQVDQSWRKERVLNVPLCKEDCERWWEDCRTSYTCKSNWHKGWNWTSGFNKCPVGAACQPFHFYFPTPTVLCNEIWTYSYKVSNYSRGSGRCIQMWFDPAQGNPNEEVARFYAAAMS

T1 sequence (P15328 25-234 limits assumed): as the sequence (P15328 other isoform, or with tags, fused parts or gaps limits assumed) above, with T2I, R4W, K37R, R117Q, P146A, Y171H counted along it

Binder | Bmax [1] | Bmax [2] | Bmax [3]
SRP1848-G04 (antibody, V domains shown, VH/VL only; Fc-bearing IgG format with trastuzumab LC, HIS/FLAG-tagged, cell-free expressed; constant regions not tied; also called Antibody 49) VH: EVQLVESGGGLVQPGGSLRLSCAASGFNIHSTDIHWVRQAPGKGLEWVAYITPAGGATFYADSVKGRFTISADTSKNTAYLQMNSLRAEDTAVYYCARYPYWFAGYMDYWGQGTLVTVSS VL: not shown | 25200 MFI | 2000 MFI | 12500 MFI
SRP1848-G06 (antibody, V domains shown, VH/VL only; Fc-bearing IgG format with trastuzumab LC, HIS/FLAG-tagged, cell-free expressed; constant regions not tied; also called Antibody 50) VH: EVQLVESGGGLVQPGGSLRLSCAASGFNIRSTDIHWVRQAPGKGLEWVAYITPAGGATYYADNVKGRFTISADTSKNTAYLQMNSLRAEDTAVYYCARQPYWFAGYMDYWGQGTLVTVSS VL: not shown | 25800 MFI | 1860 MFI | 12800 MFI
SRP1848-A02 (antibody, V domains shown, VH/VL only; Fc-bearing IgG format with trastuzumab LC, HIS/FLAG-tagged, cell-free expressed; constant regions not tied; also called Antibody 2) VH: EVQLVESGGGLVQPGGSLRLSCAASGFNISGFRIHWVRQAPGKGLEWVAGIYPESGATYYADSVKGRFTISADTSKNTAYLQMNSLRAEDTAVYYCARHLYVWDWVLDHVLDYWGQGTLVTVSS VL: not shown | 24700 MFI | 18600 MFI | 18500 MFI
SRP1848-C10 (antibody, V domains shown, VH/VL only; Fc-bearing IgG format with trastuzumab LC, HIS/FLAG-tagged, cell-free expressed; constant regions not tied; also called Antibody 23) VH: EVQLVESGGGLVQPGGSLRLSCAASGFNIRTYYIHWVRQAPGKGLEWVGGISPIDGYTDYADSVKGRFTISADTSKNTAYLQMNSLRAEDTAVYYCARGSWSWPAGYGYYLDYWGQGTLVTVSS VL: not shown | 27500 MFI | 2330 MFI | 16000 MFI
SRP1848-E03 (antibody, V domains shown, VH/VL only; Fc-bearing IgG format with trastuzumab LC, HIS/FLAG-tagged, cell-free expressed; constant regions not tied; also called Antibody 33) VH: EVQLVESGGGLAQPGGSLRLSCAASGFNIGNYYIHWVRQAPGKGLEWVGGITPRDGFTDYADSVKGRFTISADTSKNTAYLQVNSLRAEDTAVYYCARGSWSWPAGHSYYLDYWGQGTLVTVSS VL: not shown | 26700 MFI | 5940 MFI | 17400 MFI
SRP1848-F07 (antibody, V domains shown, VH/VL only; Fc-bearing IgG format with trastuzumab LC, HIS/FLAG-tagged, cell-free expressed; constant regions not tied; also called Antibody 42) VH: EVQLVESGGGLVQPGGSLRLSCAASGFNISNHSIHWVRQAPGKGLEWVGEIYPNDGITDYADSVKGRFTISADTSKNTAYLQMNSLSAEDTAVYYCARGSWDWRSGYSYYLDYWGQGTLVTVSS VL: not shown | 27400 MFI | 1390 MFI | 18700 MFI
SRP1848-E07 (antibody, V domains shown, VH/VL only; Fc-bearing IgG format with trastuzumab LC, HIS/FLAG-tagged, cell-free expressed; constant regions not tied; also called Antibody 36) VH: EVQLVESGGGLVQPGGSLRLSCAASGFNIRKSSIHWVRQAPGKGLEWVGEIFPYDGSTDYADNVKGRFTISADTSKNTAYLQMNSLRAEDTAVYYCARGAWSWRSGYGYYIDYWGQGTLVTVSS VL: not shown | 27300 MFI | 11800 MFI | 20400 MFI
SRP1848-G01 (antibody, V domains shown, VH/VL only; Fc-bearing IgG format with trastuzumab LC, HIS/FLAG-tagged, cell-free expressed; constant regions not tied; also called Antibody 47) VH: EVQLVESGGGLVQPGGSLRLSCAASGFNISRHSIHWVRQAPGKGLEWVGWIAPNDGSTDYADSVKGRFTISADTSKNTAYLQMNSLRAEDTAVYYCARGSWAWRSGYSYFLDYWGQGTLVTVSS VL: not shown | 27400 MFI | 1990 MFI | 20900 MFI
SRP1848-D05 (antibody, V domains shown, VH/VL only; Fc-bearing IgG format with trastuzumab LC, HIS/FLAG-tagged, cell-free expressed; constant regions not tied; also called Antibody 27) VH: EVQLVESGGGLVQPGGSLRLSCAASGFNISISYIHWVRQAPGKGLEWVGGISPIDGYTDYADSVKGRFTISADTSKNTAYLQMNSLRAEDTAVYYCARGSWSWRAGYGYYLDYWGQGTLVTVSS VL: not shown | 26700 MFI | 1360 MFI | 22200 MFI
SRP1848-E02 (antibody, V domains shown, VH/VL only; Fc-bearing IgG format with trastuzumab LC, HIS/FLAG-tagged, cell-free expressed; constant regions not tied; also called Antibody 32) VH: EVQLVESGGGLVQPGGSLRLSCAASGFNIGKYSIHWVRQAPGKGLEWVGEIYPNDGNTDYADSVKGRFTISADTSKNTAYLQMNSLRAEDTAVYYCARGSWSWRSGYGYYLDYWGQGTLVTVSS VL: not shown | 23800 MFI | 1470 MFI | 18700 MFI
SRP1848-F02 (antibody, V domains shown, VH/VL only; Fc-bearing IgG format with trastuzumab LC, HIS/FLAG-tagged, cell-free expressed; constant regions not tied; also called Antibody 38) VH: EVQLVESGGGLVQPGGSLRLSCAASGFNIRTYSIHWVRQAPGKGLEWVGSIFPNDGTTDYADSVKGRLTISADTSKNTAYLQMNSLRAEDTAVYYCARGSWSWQAGYGYYLDYWGQGTLVTVSS VL: not shown | 25700 MFI | 2740 MFI | 14900 MFI
SRP1848-D03 (antibody, V domains shown, VH/VL only; Fc-bearing IgG format with trastuzumab LC, HIS/FLAG-tagged, cell-free expressed; constant regions not tied; also called Antibody 25) VH: EVQLVESGGGVVQPGGSLRLSCAASGFNIRYFSIHWVRQAPGKGLEWVGDIFPNDGSTDYADSVKGRFTISADTSKNTAYLQMNSLRAEETAVYYCARGHWSWPSGYWYYLDYWGQGTLVTVSS VL: not shown | 26000 MFI | 3170 MFI | 14100 MFI

Results, then the binder that gave them:

Bmax [1] | Bmax [2] | Bmax [3] | Binder
26800 MFI | 1760 MFI | 21800 MFI | SRP1848-F11 (antibody, V domains shown, VH/VL only; Fc-bearing IgG format with trastuzumab LC, HIS/FLAG-tagged, cell-free expressed; constant regions not tied; also called Antibody 46) VH: EVQLVESGGGLVQPGGSLRLSCAASGFNISNNYIHWVRQAPGKGLEWVGGITPIDGNTDYADSVKGRFTISADTSMNTAYLQMNSLRAEDTAVYYCARGSWYWRAGYGYYLDYWGQGALVTVSS VL: not shown
27200 MFI | 5100 MFI | 24700 MFI | SRP1848-F05 (antibody, V domains shown, VH/VL only; Fc-bearing IgG format with trastuzumab LC, HIS/FLAG-tagged, cell-free expressed; constant regions not tied; also called Antibody 40) VH: EVQLVESGGGLVQPGGSLRLSCAASGFNISKSSIHWVRQAPGKGLEWVGEIYPNDGSTDYADSVKGRFTISADTSKNTAYLQMNSLRAEDTAVYYCARGSWAWRSGYSYFLDYWGQGTLVTVSS VL: not shown
25200 MFI | 3750 MFI | 21500 MFI | SRP1848-F01 (antibody, V domains shown, VH/VL only; Fc-bearing IgG format with trastuzumab LC, HIS/FLAG-tagged, cell-free expressed; constant regions not tied; also called Antibody 37) VH: EVQLVESGGGLVQPGGSLRLSCAASGFNIRTYSIHWVRQAPGKGLEWVGSIFPNDGTTDYADSVKGRFTISADTSKNTAYLQMNSLRAEDTAVYYCARGSWAWRAGYSYYLDYWGQGTLVTVSS VL: not shown
23800 MFI | 1670 MFI | 24200 MFI | SRP1848-F09 (antibody, V domains shown, VH/VL only; Fc-bearing IgG format with trastuzumab LC, HIS/FLAG-tagged, cell-free expressed; constant regions not tied; also called Antibody 44) VH: EVQLVESGGGLVQPGGSLRLSCAASGFNISNHYIHWVRQAPGKGLEWVGGISPLDGYTDYADSVKGRFTISADTSKNTAYLQMNSLRAEDTAVYYCARGAWSWRSGYGYYIDYWGQGTLVTVSS VL: not shown
27000 MFI | 3950 MFI | 17200 MFI | SRP1848-H01 (antibody, V domains shown, VH/VL only; Fc-bearing IgG format with trastuzumab LC, HIS/FLAG-tagged, cell-free expressed; constant regions not tied; also called Antibody 55) VH: EVQLVESGGGLVQPGGSLRLSCAASGFNIRTQSIHWVRQAPGKGLEWIGDIFPIDGITDYADSVKGRFTISADTSKNTAYLQMNSLRAEDTAVYYCARGSWSWPSGMDYYLDYWGQGTLVTVSS VL: not shown
28800 MFI | 916 MFI | 28000 MFI | SRP1848-D02 (antibody, V domains shown, VH/VL only; Fc-bearing IgG format with trastuzumab LC, HIS/FLAG-tagged, cell-free expressed; constant regions not tied; also called Antibody 24) VH: EVQLVESGGGLVQPGGSLRLSCAASGFNISHNYIHWVRQAPGKGLEWVGGITPQDGYTDYADSVKGRFTISADTSKNTAYLQMNRLRAEDTAVYYCARGAWSWRAGYGYYLDYWGQGTLVTVSS VL: not shown
26500 MFI | 1860 MFI | 20600 MFI | SRP1848-D10 (antibody, V domains shown, VH/VL only; Fc-bearing IgG format with trastuzumab LC, HIS/FLAG-tagged, cell-free expressed; constant regions not tied; also called Antibody 30) VH: EVQLVESGGGLVQPGGSLRLSCAASGFNISRNSIHWVRQAPGKGLEWVGWISPNDGTTDYADSVKGRFTISADGSKNTAYLQMNSLRAEDTAVYYCARGAWSWRSGYGYYIDYWGQGTLVTVSS VL: not shown
26400 MFI | 2220 MFI | 19200 MFI | SRP1848-G03 (antibody, V domains shown, VH/VL only; Fc-bearing IgG format with trastuzumab LC, HIS/FLAG-tagged, cell-free expressed; constant regions not tied; also called Antibody 48) VH: EVQLVESGGGLVQPGGSLRLSCAASGFNISTYYIHWVRQAPGKGLEWVGGITPSDGFTDYADSVKGRSTISADTSKNTAYLQMNSLRAEDTAVYYCARGSWSWPSGHGYFLDYWGQGTLVTVSS VL: not shown
25600 MFI | 1740 MFI | 20700 MFI | SRP1848-F10 (antibody, V domains shown, VH/VL only; Fc-bearing IgG format with trastuzumab LC, HIS/FLAG-tagged, cell-free expressed; constant regions not tied; also called Antibody 45) VH: EVQLVESGGGLVQPGGSLRLSCAASGFNISNNSIHWVRQAPGKGLEWVGSIFPNDGYTDYADSVKGRFTISADTSKNTAYLQMNSLRAEDTAVYYCARGSWFWRSGYGYYLDYWGQGTLVTVSS VL: not shown
